Source: article PMC3070748

Molecular target: Gemin7 BiFC construct (UniProt Q9H840)
Test: split reporter

UniProt Q9H840, sequence (Q9H840 whole entry): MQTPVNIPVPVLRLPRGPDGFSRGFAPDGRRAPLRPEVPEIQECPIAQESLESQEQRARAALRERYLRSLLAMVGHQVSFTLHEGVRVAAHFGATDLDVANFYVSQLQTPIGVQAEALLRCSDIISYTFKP

With “murine Unrip fused to a Venus fragment (BiFC construct) (from UniProt Q9Z1Z2 1-350) (natural protein)” as the substance, how does the percent of BiFC-positive cells read?
Its percent of BiFC-positive cells is 56%.
